Here are results for one protein from article PMC3137230 (ACS Chemical Biology, 2011).

This data set concerns the molecule itself. Put plainly: crystal structure.

B1: MmOmeRS, C-terminal catalytic domain (residues 185-454) of the evolved Methanosarcina mazei pyrrolysyl-tRNA synthetase (enzyme, UniProt Q8PWY1 185-454, looked up)
chain: ASAPALTKSQTDRLEVLLNPKDEISLNSGKPFRELESELLSRRKKDLQQIYAEERENYLGKLEREITRFFVDRGFLEIKSPILIPLEYIERMGIDNDTELSKQIFRVDKNFCLRPMLTPNLYNYLRKLDRALPDPIKIFEIGPCYRKESDGKEHLEEFTMLVFWQMGSGCTRENLESIITDFLNHLGIDFKIVGDSCMVFGDTLDVMHGDLELSSALVGPIPLDREWGIDKPWIGAGFGLERLLKVKHDFKNIKRAARSESYYNGISTNL
As to B1, the binding result is listed as “binds”.
